Consider one molecule from publication PMC9352346.

One assay has as its target T1, GST-Smad4, Q13485.
T1 chain: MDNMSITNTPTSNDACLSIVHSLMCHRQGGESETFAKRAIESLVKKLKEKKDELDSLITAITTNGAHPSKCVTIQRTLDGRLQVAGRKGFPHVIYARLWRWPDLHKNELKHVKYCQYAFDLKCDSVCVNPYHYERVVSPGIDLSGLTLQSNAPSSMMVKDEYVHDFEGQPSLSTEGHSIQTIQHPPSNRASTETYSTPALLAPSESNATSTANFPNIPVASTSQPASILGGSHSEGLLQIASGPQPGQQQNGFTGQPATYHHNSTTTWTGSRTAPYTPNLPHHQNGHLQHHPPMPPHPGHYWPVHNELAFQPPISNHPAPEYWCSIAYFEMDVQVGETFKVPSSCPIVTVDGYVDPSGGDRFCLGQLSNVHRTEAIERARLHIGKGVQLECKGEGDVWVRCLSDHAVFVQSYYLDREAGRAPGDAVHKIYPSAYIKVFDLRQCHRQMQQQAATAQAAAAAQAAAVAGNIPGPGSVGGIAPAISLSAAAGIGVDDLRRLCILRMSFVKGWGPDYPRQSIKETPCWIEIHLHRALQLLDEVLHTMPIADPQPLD
Kind of assay: GST pull-down, immunoblot band quantification. To be noted: chain shown with the change; HEK293T cell lysate; n=3; read off a plot. (Immunoblotting shows a protein as a band on a membrane.)

Another assay deals with T2, GST-Smad4-MH2, Q13485.
T2 chain: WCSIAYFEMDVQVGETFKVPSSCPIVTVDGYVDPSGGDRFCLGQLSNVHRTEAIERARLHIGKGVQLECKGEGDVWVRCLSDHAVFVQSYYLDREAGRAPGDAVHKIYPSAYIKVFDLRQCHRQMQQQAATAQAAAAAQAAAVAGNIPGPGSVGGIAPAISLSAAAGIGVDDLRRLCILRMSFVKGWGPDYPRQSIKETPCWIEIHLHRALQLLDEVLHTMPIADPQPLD
The assay can be described thus: GST pull-down, immunoblot band quantification. Particulars: chain shown with the change; HEK293T cell lysate; n=3; read off a plot.

B1: Arl15-WT-GFP A86L (protein)
chain: MSDLRITEAFLYMDYLCFRALCCKGPPPARPEYDLVCIGLTGSGKTSLLSKLCSESPDNVVSTTGFSIKAVPFQNAILNVKELGGLDNIRKYWSRYYQGSQGVIFVLDSASSEDDLEAARNELHSALQHPQLCTLPFLILANHQDKPAARSVQEIKKYFELEPLARGKRWILQPCSLDDMDALKDSFSQLINLLEEKDHEAVRM
Take B1: the other: relative amount of Arl15-AL-GFP pulled down is 1 in the assay with GST-Smad4, Q13485 and 0.55 in the assay with GST-Smad4-MH2, Q13485.
